For series [1], the target named is T1, activated factor VIII (FVIIIa): Recombinate Antihemophilic Factor activated with thrombin, P00451.
T1 chain: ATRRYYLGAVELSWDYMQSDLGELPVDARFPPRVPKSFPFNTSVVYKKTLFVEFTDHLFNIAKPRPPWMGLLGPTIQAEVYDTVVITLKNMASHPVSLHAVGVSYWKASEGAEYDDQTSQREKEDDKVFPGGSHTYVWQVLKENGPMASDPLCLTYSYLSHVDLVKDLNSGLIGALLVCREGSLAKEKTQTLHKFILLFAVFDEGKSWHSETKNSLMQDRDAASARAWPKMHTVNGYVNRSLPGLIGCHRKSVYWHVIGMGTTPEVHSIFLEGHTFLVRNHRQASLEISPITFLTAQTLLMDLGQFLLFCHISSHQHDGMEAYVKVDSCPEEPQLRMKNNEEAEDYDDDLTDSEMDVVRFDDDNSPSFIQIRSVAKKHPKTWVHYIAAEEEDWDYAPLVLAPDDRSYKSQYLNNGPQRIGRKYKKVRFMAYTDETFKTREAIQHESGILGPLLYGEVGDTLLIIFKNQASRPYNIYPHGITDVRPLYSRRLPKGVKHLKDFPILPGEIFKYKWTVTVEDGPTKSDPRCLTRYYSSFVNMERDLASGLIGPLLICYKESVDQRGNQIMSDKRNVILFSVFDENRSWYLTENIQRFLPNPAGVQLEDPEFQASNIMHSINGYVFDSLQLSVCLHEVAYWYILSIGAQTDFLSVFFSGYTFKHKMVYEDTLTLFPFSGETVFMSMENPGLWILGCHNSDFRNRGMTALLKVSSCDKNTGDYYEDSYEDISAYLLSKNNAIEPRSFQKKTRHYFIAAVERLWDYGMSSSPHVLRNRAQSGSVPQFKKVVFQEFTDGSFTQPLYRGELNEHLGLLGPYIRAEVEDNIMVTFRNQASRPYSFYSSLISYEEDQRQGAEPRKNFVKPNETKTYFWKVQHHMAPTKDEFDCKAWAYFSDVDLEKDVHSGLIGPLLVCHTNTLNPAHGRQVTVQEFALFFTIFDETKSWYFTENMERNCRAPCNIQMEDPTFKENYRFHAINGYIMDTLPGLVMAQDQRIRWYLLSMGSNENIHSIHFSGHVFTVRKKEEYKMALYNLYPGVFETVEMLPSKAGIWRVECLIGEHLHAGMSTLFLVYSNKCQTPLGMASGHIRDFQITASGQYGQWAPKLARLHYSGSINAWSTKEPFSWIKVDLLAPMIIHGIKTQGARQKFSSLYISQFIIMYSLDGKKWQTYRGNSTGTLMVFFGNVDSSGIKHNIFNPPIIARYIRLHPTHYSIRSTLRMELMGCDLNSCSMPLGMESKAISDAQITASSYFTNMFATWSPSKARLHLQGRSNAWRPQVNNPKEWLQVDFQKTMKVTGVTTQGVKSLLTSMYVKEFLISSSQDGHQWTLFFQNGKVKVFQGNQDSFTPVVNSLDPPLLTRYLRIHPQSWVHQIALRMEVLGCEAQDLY

Sequence of factor X (FX), P00742 (P00742 whole entry, looked up): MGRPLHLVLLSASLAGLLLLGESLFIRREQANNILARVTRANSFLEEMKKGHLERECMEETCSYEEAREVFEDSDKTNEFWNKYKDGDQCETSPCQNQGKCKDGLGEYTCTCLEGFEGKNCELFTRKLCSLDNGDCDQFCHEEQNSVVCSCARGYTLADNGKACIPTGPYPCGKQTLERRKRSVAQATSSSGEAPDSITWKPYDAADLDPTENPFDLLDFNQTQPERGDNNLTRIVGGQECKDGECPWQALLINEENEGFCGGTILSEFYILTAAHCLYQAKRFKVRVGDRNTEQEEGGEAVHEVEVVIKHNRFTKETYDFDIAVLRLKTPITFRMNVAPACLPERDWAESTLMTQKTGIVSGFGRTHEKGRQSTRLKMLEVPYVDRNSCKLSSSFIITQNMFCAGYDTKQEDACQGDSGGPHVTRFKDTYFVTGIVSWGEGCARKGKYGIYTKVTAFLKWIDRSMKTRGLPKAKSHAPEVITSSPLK

B1: FIX-Y94F/K98T/Y177F (recombinant, full length, HEK 293), activated form (protein)
chain: YNSGKLEEFVQGNLERECMEEKCSFEEAREVFENTERTTEFWKQYVDGDQCESNPCLNGGSCKDDINSYECWCPFGFEGKNCELDVTCNIKNGRCEQFCKNSADNKVVCSCTEGYRLAENQKSCEPAVPFPCGRVSVSQTSKLTRAEAVFPDVDYVNSTEAETILDNITQSTQSFNDFTRVVGGEDAKPGQFPWQVVLNGKVDAFCGGSIVNEKWIVTAAHCVETGVKITVVAGEHNIEETEHTEQKRNVIRIIPHHNFNAAINTYNHDIALLELDEPLVLNSYVTPICIADKEYTNIFLKFGSGYVSGWGRVFHKGRSALVLQYLRVPLVDRATCLRSTKFTIFNNMFCAGFHEGGRDSCQGDSGGPHVTEVEGTSFLTGIISWGEECAMKGKYGIYTKVSRYVNWIKEKTKLT
As for B1, the “ratio kcat/KM +/- FVIIIa (FX activation)” value in series [1] is 16,424. For the same protein, in the series with factor X (FX), P00742, the KM (nM), FX activation with FVIIIa stood at 14 nM; the KM (nM), FX activation without FVIIIa stood at 68 nM; the kcat (10^-3 min^-1), FX activation without FVIIIa stood at 0.000333 s⁻¹; the kcat (min^-1), FX activation with FVIIIa is 68 min⁻¹. Also, in the series with factor X (FX), P00742, the kcat/KM (10^-6 nM^-1 min^-1), FX activation without FVIIIa was found to be 4880 M⁻¹ s⁻¹; the kcat/KM (nM^-1 min^-1), FX activation with FVIIIa turned out to be 8.33e+07 M⁻¹ s⁻¹; the “rate of FX activation against pdFIXa” value was “FIX-WT and FIX-Y94F/K98T/Y177F activated FX at the same rate as pdFIXa”.

B2: FIX-Y94F/K98T/Y177F/I213V/E219G (recombinant, full length, HEK 293), activated form (protein)
chain: YNSGKLEEFVQGNLERECMEEKCSFEEAREVFENTERTTEFWKQYVDGDQCESNPCLNGGSCKDDINSYECWCPFGFEGKNCELDVTCNIKNGRCEQFCKNSADNKVVCSCTEGYRLAENQKSCEPAVPFPCGRVSVSQTSKLTRAEAVFPDVDYVNSTEAETILDNITQSTQSFNDFTRVVGGEDAKPGQFPWQVVLNGKVDAFCGGSIVNEKWIVTAAHCVETGVKITVVAGEHNIEETEHTEQKRNVIRIIPHHNFNAAINTYNHDIALLELDEPLVLNSYVTPICIADKEYTNIFLKFGSGYVSGWGRVFHKGRSALVLQYLRVPLVDRATCLRSTKFTIFNNMFCAGFHEGGRDSCQGDSGGPHVTEVEGTSFLTGIVSWGEGCAMKGKYGIYTKVSRYVNWIKEKTKLT
Take B2: the “ratio kcat/KM +/- FVIIIa (FX activation)” value in series [1] is given as 9,581. In addition, in the series with factor X (FX), P00742, the KM (nM), FX activation with FVIIIa is 17 nM; the KM (nM), FX activation without FVIIIa is 40 nM; the “fold increase of kcat of FX activation against pdFIX” value was “enhanced the kcat by a factor of 17 and 6, respectively”; the kcat (10^-3 min^-1), FX activation without FVIIIa came out at 0.00222 s⁻¹. For the same protein, in the series with factor X (FX), P00742, the kcat (min^-1), FX activation with FVIIIa is 528 min⁻¹; the kcat/KM (10^-6 nM^-1 min^-1), FX activation without FVIIIa is 54900 M⁻¹ s⁻¹; the kcat/KM (nM^-1 min^-1), FX activation with FVIIIa came out at 5.33e+08 M⁻¹ s⁻¹.

B3: FIX-Y94F/A95aK/K98T/Y177F (recombinant, full length, HEK 293), activated form (protein)
chain: YNSGKLEEFVQGNLERECMEEKCSFEEAREVFENTERTTEFWKQYVDGDQCESNPCLNGGSCKDDINSYECWCPFGFEGKNCELDVTCNIKNGRCEQFCKNSADNKVVCSCTEGYRLAENQKSCEPAVPFPCGRVSVSQTSKLTRAEAVFPDVDYVNSTEAETILDNITQSTQSFNDFTRVVGGEDAKPGQFPWQVVLNGKVDAFCGGSIVNEKWIVTAAHCVETGVKITVVAGEHNIEETEHTEQKRNVIRIIPHHNFNKAINTYNHDIALLELDEPLVLNSYVTPICIADKEYTNIFLKFGSGYVSGWGRVFHKGRSALVLQYLRVPLVDRATCLRSTKFTIFNNMFCAGFHEGGRDSCQGDSGGPHVTEVEGTSFLTGIISWGEECAMKGKYGIYTKVSRYVNWIKEKTKLT
B3: the “ratio kcat/KM +/- FVIIIa (FX activation)” value in series [1] is listed as 5,705. In the series with factor X (FX), P00742, the KM (nM), FX activation with FVIIIa came out at 20 nM; the KM (nM), FX activation without FVIIIa was determined as 73 nM; the kcat (10^-3 min^-1), FX activation without FVIIIa is 6.67e-05 s⁻¹; the kcat (min^-1), FX activation with FVIIIa amounted to 7 min⁻¹. In addition, in the series with factor X (FX), P00742, the kcat/KM (10^-6 nM^-1 min^-1), FX activation without FVIIIa was found to be 950 M⁻¹ s⁻¹.

B4: FIX-Y94F/A95aK/K98T/Y177F/I213V/E219G (recombinant, full length, HEK 293), activated form (protein)
chain: YNSGKLEEFVQGNLERECMEEKCSFEEAREVFENTERTTEFWKQYVDGDQCESNPCLNGGSCKDDINSYECWCPFGFEGKNCELDVTCNIKNGRCEQFCKNSADNKVVCSCTEGYRLAENQKSCEPAVPFPCGRVSVSQTSKLTRAEAVFPDVDYVNSTEAETILDNITQSTQSFNDFTRVVGGEDAKPGQFPWQVVLNGKVDAFCGGSIVNEKWIVTAAHCVETGVKITVVAGEHNIEETEHTEQKRNVIRIIPHHNFNKAINTYNHDIALLELDEPLVLNSYVTPICIADKEYTNIFLKFGSGYVSGWGRVFHKGRSALVLQYLRVPLVDRATCLRSTKFTIFNNMFCAGFHEGGRDSCQGDSGGPHVTEVEGTSFLTGIVSWGEGCAMKGKYGIYTKVSRYVNWIKEKTKLT
As for B4, the “ratio kcat/KM +/- FVIIIa (FX activation)” value in series [1] is reported as 8,354. Also, in the series with factor X (FX), P00742, the KM (nM), FX activation with FVIIIa was found to be 13 nM; the KM (nM), FX activation without FVIIIa was determined as 55 nM; the “fold increase of kcat of FX activation against pdFIX” value is “enhanced the kcat by a factor of 17 and 6, respectively”; the kcat (10^-3 min^-1), FX activation without FVIIIa is 0.00102 s⁻¹. Moreover, in the series with factor X (FX), P00742, the kcat (min^-1), FX activation with FVIIIa turned out to be 122 min⁻¹; the kcat/KM (10^-6 nM^-1 min^-1), FX activation without FVIIIa came out at 18200 M⁻¹ s⁻¹; the kcat/KM (nM^-1 min^-1), FX activation with FVIIIa was found to be 1.5e+08 M⁻¹ s⁻¹.

Values taken from US20080214461.
